Test results taken from patent US20160215065A1 (Genentech, published 2016).
Where “and” joins values, the source holds several entries; their conditions need not be identical. Equal entries are not always repeated. Where two headings read alike, the source gives them in different places.

T1: internally quenched fluorogenic peptide substrate with P1-arginine
T1 sequence: IRRSSYSFKK

T2: internally quenched fluorogenic peptide substrate with P1-methylarginine
T2 sequence: IRRSSYSFKK

T3: internally quenched fluorogenic peptide substrate with P1-arginine
T3 chain: IRRSSYSFKK

T4: internally quenched fluorogenic peptide substrate with P1-methylarginine
T4 chain: IRRSSYSFKK

T5: mouse active NSP4 (mA) (mouse, UniProt Q14B24 36-284)
T5 construct: mature; also called mA-NSP4; mA (NSP4)
T5 sequence (looked up): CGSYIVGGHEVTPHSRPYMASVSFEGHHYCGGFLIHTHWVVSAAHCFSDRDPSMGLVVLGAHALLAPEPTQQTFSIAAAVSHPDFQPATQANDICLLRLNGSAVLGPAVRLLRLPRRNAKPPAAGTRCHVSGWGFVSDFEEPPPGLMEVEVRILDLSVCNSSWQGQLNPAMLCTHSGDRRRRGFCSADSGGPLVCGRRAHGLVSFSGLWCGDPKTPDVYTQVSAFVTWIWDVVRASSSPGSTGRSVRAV

T6: mouse zymogen NSP4 (mZ) (mouse, UniProt Q14B24 36-284)
T6 construct: mature; Expressed in CHO cells; also called mZ-NSP4; mZ (NSP4); not shown: N-terminal FLAG tag cleavable by enteropeptidase (cleavage after Asp-Asp-Asp-Asp-Lys)
T6 sequence (looked up): T5 sequence (looked up)

T7: human active NSP4 (hA) (human, UniProt Q6UWY2 34-283)
T7 construct: range 34-283; For crystals partly deglycosylated with Endo F3 (FFR-cmk complex) or fully glycosylated (VLK-cmk complex); also called hA-NSP4; hA (NSP4)
T7 sequence (looked up): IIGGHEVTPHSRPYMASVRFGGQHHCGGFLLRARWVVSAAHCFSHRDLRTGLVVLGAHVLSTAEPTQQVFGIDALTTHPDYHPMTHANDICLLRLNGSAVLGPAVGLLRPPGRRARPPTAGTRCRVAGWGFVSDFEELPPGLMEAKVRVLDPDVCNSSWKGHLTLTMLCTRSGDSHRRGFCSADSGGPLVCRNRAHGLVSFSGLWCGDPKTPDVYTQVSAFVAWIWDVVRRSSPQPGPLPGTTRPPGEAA

T8: mouse active NSP4 (mA) (mouse), Q14B24
T8 chain: T5 sequence (looked up)

B1: human active NSP4 (hA) (protein)
chain: T7 sequence (looked up)
B2: human wild-type NSP4 produced in CHO cells, activated (protein)
chain: T7 sequence (looked up)
B3: anti-NSP4 antibody 2-4 (antibody, human IgG1, V domains shown)
VH: EVQLVESGGGLVQPGGSLRLSCAASGFTFSDYWISWVRQAPGKGLEWVAGISPNNGDTYYADSVKGRFTISADTSKNTAYLQMNSLRAEDTAVYYCAREDDDERDYAMDYWGQGTLVTVSS
VL: DIQMTQSPSSLSASVGDRVTITCRASQDVSTAVAWYQQKPGKAPKLLIYSASFLYSGVPSRFSGSGSGTDFTLTISSLQPEDFATYYCQQSYTTPPTFGQGTKVEIKR
notes: also called clone 2-4
B4: anti-NSP4 antibody 2-3 (antibody, human IgG1, V domains shown)
VH: EVQLVESGGGLVQPGGSLRLSCAASGFTFTDSDISWVRQAPGKGLEWVAWISPSDGATDYADSVKGRFTISADTSKNTAYLQMNSLRAEDTAVYYCAHEASDDDYAIDYWGQGTLVTVSS
VL: B3 VL
notes: also called clone 2-3
B5: anti-NSP4 antibody 1-2 (antibody, human IgG1, V domains shown)
VH: EVQLVESGGGLVQPGGSLRLSCAASGFTFSGYSIHWVRQAPGKGLEWVAGISPTNGYTDYADSVKGRFTISADTSKNTAYLQMNSLRAEDTAVYYCARLVFYRGVMDYWGQGTLVTVSS
VL: B3 VL
B6: anti-NSP4 antibody 5-4 (antibody, V domains shown)
VH: EVQLVESGGGLVQPGGSLRLSCAASGFTFTSYAISWVRQAPGKGLEWVAGISPSNGYTNYADSVKGRFTISADTSKNTAYLQMNSLRAEDTAVYYCARAGRWTHSDIDYWGQGTLVTVSS
VL: B3 VL
B7: anti-NSP4 antibody 5-3 (antibody, V domains shown)
VH: EVQLVESGGGLVQPGGSLRLSCAASGFTFSGNDISWVRQAPGKGLEWVAGISPYGGSTYYADSVKGRFTISADTSKNTAYLQMNSLRAEDTAVYYCARRVSFYSRHAGMDYWGQGTLVTVSS
VL: B3 VL
B8: anti-NSP4 antibody 4-4 (antibody, human IgG1, V domains shown)
VH: EVQLVESGGGLVQPGGSLRLSCAASGFTFTSTSIHWVRQAPGKGLEWVAEITPHGGYTNYADSVKGRFTISADTSKNTAYLQMNSLRAEDTAVYYCARGRTKWGWLYGMDYWGQGTLVTVSS
VL: B3 VL
notes: also called clone 4-4
B9: anti-NSP4 antibody 1-1 (antibody, human IgG1, V domains shown)
VH: EVQLVESGGGLVQPGGSLRLSCAASGFTFSGSWISWVRQAPGKGLEWVGTISPYNGSTYYADSVKGRFTISADTSKNTAYLQMNSLRAEDTAVYYCARVLRPKVYASVMDYWGQGTLVTVSS
VL: B3 VL
B10: anti-NSP4 antibody 3-2 (antibody, human IgG1, V domains shown)
VH: EVQLVESGGGLVQPGGSLRLSCAASGFTFSDYSISWVRQAPGKGLEWVGEINPAGGATYYADSVKGRFTISADTSKNTAYLQMNSLRAEDTAVYYCARGDFPFWSDAYYVMDYWGQGTLVTVSS
VL: B3 VL
notes: also called Ab 3-2; clone 3-2
B11: anti-NSP4 antibody 4-2 (antibody, human IgG1, V domains shown)
VH: EVQLVESGGGLVQPGGSLRLSCAASGFTFSGSDISWVRQAPGKGLEWVGEIYPSNGDTYYADSVKGRFTISADTSKNTAYLQMNSLRAEDTAVYYCARSVRPSWWAMDYWGQGTLVTVSS
VL: B3 VL
notes: also called clone 4-2
B12: anti-NSP4 antibody 2-5 (antibody, human IgG1, V domains shown)
VH: EVQLVESGGGLVQPGGSLRLSCAASGFTFTGYGISWVRQAPGKGLEWVGWIYPASGATYYADSVKGRFTISADTSKNTAYLQMNSLRAEDTAVYYCARHRAFDWYPYYIGSSVMDYWGQGTLVTVSS
VL: B3 VL
notes: also called clone 2-5
B13: anti-NSP4 antibody 2-2 (antibody, human IgG1, V domains shown)
VH: EVQLVESGGGLVQPGGSLRLSCAASGFTFSSTAISWVRQAPGKGLEWVGEIYPSDGYTDYADSVKGRFTISADTSKNTAYLQMNSLRAEDTAVYYCARVKWAVSSLGVMDYWGQGTLVTVSS
VL: B3 VL
notes: also called clone 2-2
B14: anti-NSP4 antibody 1-5 (antibody, human IgG1, V domains shown)
VH: EVQLVESGGGLVQPGGSLRLSCAASGFTFTNNSISWVRQAPGKGLEWVGAISPNNGSTYYADSVKGRFTISADTSKNTAYLQMNSLRAEDTAVYYCARNAWHYSWVGVMDYWGQGTLVTVSS
VL: B3 VL
B15: anti-NSP4 antibody 5-1 (antibody, human IgG1, V domains shown)
VH: EVQLVESGGGLVQPGGSLRLSCAASGFTFSGSGIHWVRQAPGKGLEWVAWISPTGGNTYYADSVKGRFTISADTSKNTAYLQMNSLRAEDTAVYYCAKSLFHNVAFDYWGQGTLVTVSS
VL: B3 VL
B16: anti-NSP4 antibody 1-3 (antibody, human IgG1, V domains shown)
VH: EVQLVESGGGLVQPGGSLRLSCAASGFTFSDNWISWVRQAPGKGLEWVGYIYPASGYTDYADSVKGRFTISADTSKNTAYLQMNSLRAEDTAVYYCASDSPHAYWYAMDYWGQGTLVTVSS
VL: B3 VL
B17: anti-NSP4 antibody 2-1 (antibody, human IgG1, V domains shown)
VH: EVQLVESGGGLVQPGGSLRLSCAASGFTFTDYSIHWVRQAPGKGLEWVAEIYPYSGDTYYADSVKGRFTISADTSKNTAYLQMNSLRAEDTAVYYCARDGDGWFDWAMDYWGQGTLVTVSS
VL: B3 VL
notes: also called clone 2-1
B18: anti-NSP4 antibody 3-5 (antibody, human IgG1, V domains shown)
VH: EVQLVESGGGLVQPGGSLRLSCAASGFTFSDNDISWVRQAPGKGLEWVGSISPDNGDTNYADSVKGRFTISADTSKNTAYLQMNSLRAEDTAVYYCARDDVPAVFTSAMDYWGQGTLVTVSS
VL: B3 VL
notes: also called Ab 3-5; Ab35

Assays:
[1] = system: T1, internally quenched fluorogenic peptide substrate with P1-arginine
[2] = system: T2, internally quenched fluorogenic peptide substrate with P1-methylarginine
[3] = molecular target: T3, internally quenched fluorogenic peptide …
[4] = molecular target: T4, internally quenched fluorogenic peptide …
[5] = molecular target: T5, mouse active NSP4 (mA); experiment: BLI affinity class in summary table
[6] = molecular target: T6, mouse zymogen NSP4 (mZ); experiment: BLI affinity class in summary table
[7] = molecular target: T7, human active NSP4 (hA); experiment: BLI affinity class in summary table
[8] = molecular target: human zymogen NSP4 (hZ) (human) (UniProt Q6UWY2); experiment: competition phage ELISA (phage IC50); soluble hZ-NSP4 against plate-coated NSP4
[9] = molecular target: human zymogen NSP4 (hZ) (human) (UniProt Q6UWY2); experiment: BLI affinity class in summary table
[10] = molecular target: T8, mouse active NSP4 (mA) (mouse), Q14B24; experiment: BLI affinity class in summary table; details: remark: other sources report otherwise
[11] = molecular target: T8, mouse active NSP4 (mA) (mouse), Q14B24; experiment: competition phage ELISA (phage IC50); soluble mA-NSP4 against plate-coated NSP4; details: remark: other sources report otherwise

Row | Molecule | Kd [6] [µM] | Kd [7] [µM] | IC50 [8] [µM] | Kd [9] | other results
1 | Factor Xa |  |  |  |  | cleavage of fluorogenic peptide with P1-arginine [1]: factor Xa, with a canonical S1 pocket could only cleave unmodified P1-Arg substrate; cleavage of fluorogenic peptide with P1-methylarginine [2]: factor Xa, with a canonical S1 pocket could only cleave unmodified P1-Arg substrate
2 | B1 |  |  |  |  | kcat/KM of fluorogenic peptide cleavage [3]: WT (BEVS) kcat/KM=1.1×10^4±2.1×10^3 M^-1 s^-1; cleavage of fluorogenic peptide with P1-methylarginine [4]: NSP4 could indeed cleave after methylarginine
3 | B2 |  |  |  |  | kcat/KM of fluorogenic peptide cleavage [3]: WT (CHO) kcat/KM=7.5×10^3 ±1.1×10^3 M^-1s^-1
4 | B3 | < 0.05 | < 0.05 | 0.0023 | < 0.05 µM | Kd [5]: < 0.05 µM
5 | B4 | < 0.05 | < 0.05 | 0.00307 | < 0.05 µM | Kd [5]: < 0.05 µM
6 | B5 |  |  | 0.0221 | < 0.05 µM | 
7 | B6 |  |  |  |  | Kd [10]: < 0.05 µM; IC50 [11]: 0.0605 µM
8 | B7 |  |  |  |  | Kd [10]: < 0.05 µM; IC50 [11]: 0.319 µM
9 | B8 |  | < 0.05 |  | > 0.05 µM and < 1 µM | 
10 | B9 |  |  | 0.155 | > 0.05 µM and < 1 µM | 
11 | B10 | < 0.05 |  |  |  | Kd [5]: < 0.05 µM
12 | B11 |  | < 0.05 |  | > 0.05 µM and < 1 µM | 
13 | B12 | < 0.05 |  | 0.022 | < 0.05 µM | 
14 | B13 | < 0.05 |  | 0.0104 | < 0.05 µM | 
15 | B14 |  |  | 0.115 | > 0.05 µM and < 1 µM | 
16 | B15 |  |  |  |  | Kd [10]: < 0.05 µM; IC50 [11]: 0.00993 µM
17 | B16 |  |  | 0.052 | > 0.05 µM and < 1 µM | 
18 | B17 | < 0.05 | < 0.05 | 0.00762 | < 0.05 µM | Kd [5]: < 0.05 µM
19 | B18 | < 0.05 | < 0.05 |  | < 0.05 µM | Kd [5]: < 0.05 µM
